The target in data set [1] is parental (WT) ZAP70 FRET biosensor with LAT Y191 substrate … (SEQ ID NO:107), kinase domain removed. Briefly: cell-based or functional assay.
The target of data set [2] is improved ZAP70 FRET biosensor with substrate … (SEQ ID NO:113), kinase domain removed. Briefly: cell-based or functional assay.
For data set [3] the target is unchanged.

B1: ZAP70 kinase (Zeta-chain-associated protein kinase 70), endogenous in Jurkat T cells (protein)
chain: MPDPAAHLPFFYGSISRAEAEEHLKLAGMADGLFLLRQCLRSLGGYVLSLVHDVRFHHFPIERQLNGTYAIAGGKAHCGPAELCEFYSRDPDGLPCNLRKPCNRPSGLEPQPGVFDCLRDAMVRDYVRQTWKLEGEALEQAIISQAPQVEKLIATTAHERMPWYHSSLTREEAERKLYSGAQTDGKFLLRPRKEQGTYALSLIYGKTVYHYLISQDKAGKYCIPEGTKFDTLWQLVEYLKLKADGLIYCLKEACPNSSASNASGAAAPTLPAHPSTLTHPQRRIDTLNSDGYTPEPARITSPDKPRPMPMDTSVYESPYSDPEELKDKKLFLKRDNLLIADIELGCGNFGSVRQGVYRMRKKQIDVAIKVLKQGTEKADTEEMMREAQIMHQLDNPYIVRLIGVCQAEALMLVMEMAGGGPLHKFLVGKREEIPVSNVAELLHQVSMGMKYLEEKNFVHRDLAARNVLLVNRHYAKISDFGLSKALGADDSYYTARSAGKWPLKWYAPECINFRKFSSRSDVWSYGVTMWEALSYGQKPYKKMKGPEVMAFIEQGKRMECPPECPPELYALMSDCWIYKWEDRPDFLTVEQRMRACYYSLASKVEGPPGSTQKAEAACA
As to B1, the values for the ECFP/FRET ratio change (sensitivity) of the biosensor in Jurkat T cells upon CD3/CD28-antibody stimulation in data set [1] and in data set [2] were 5.8% and 25%, respectively. Also, the increase in sensitivity compared to the parental template (SREYVNVSGEL) in data set [3] is > 4 fold.

Values taken from patent US20250347696A1, “SELF-ACTIVATING FÖRSTER RESONANCE ENERGY TRANSFER (saFRET) BIOSENSORS AND METHODS FOR MAKING AND USING THEM” (The Regents of the University of California, priority 2021, published 2025).
